In doi:10.1101/2025.04.14.648684:

Legend:
[1] = target: All4144(68–214), N-terminal deletion mutant of All4144 lacking the HTH domain (Anabaena sp. PCC7120); assay: cross-linking
[2] = target: All4144 (GrpE homolog of Anabaena sp. PCC 7120), full length (Anabaena sp. PCC7120); assay: cross-linking

In the case of “All4144(68–214), N-terminal deletion mutant of All4144 lacking the HTH domain (domain or fragment)”, the stoichiometry N [1] is reported as 2.
Substance “All4144 (GrpE homolog of Anabaena sp. PCC 7120), full length (natural protein)” has a stoichiometry N [2] of 2.
